Data taken from publication PMC7329128.

Key:
Assay in all cases: flow cytometry on cells
[1] = biological target: soluble HCMV glycoprotein trimer gH/gL/gO-sfGFP, strain TB40/E; conditions: 1/3 dilution of medium containing gH/gL/gO-sfGFP, read off a plot
[2] = biological target: membrane-anchored HCMV trimer (full-length gH, gL-FLAG, gO-8his), strain TB40/E, on Expi293F cells; conditions: fitted curve read at 100 nM soluble PDGFR-Fc (right end of the x axis); parent: est. 1.2; read off a plot
[3] = biological target: membrane-anchored HCMV trimer (full-length gH, gL-FLAG, gO-8his), strain Merlin, on Expi293F cells, Q6SW67;F5HCH8; conditions: read at 100 nM soluble PDGFR-Fc (highest concentration); parent: est. 0.98; read off a plot
[4] = + 100 nM PDGF competitor, parent: est. 0.33
[5] = w/o competitor, parent: est. 1.0

Row | Substance | ratio to parent [1, 4] | ratio to parent [1, 5] | ratio to parent [2] | ratio to parent [3]
1 | myc-tagged human PDGFRα (wild type) on Expi293F cells (from UniProt P16234-1) L137K | 0.85 | 0.82 | – | –
2 | myc-tagged human PDGFRα (wild type) on Expi293F cells (from UniProt P16234-1) L137Q | 0.71 | 0.9 | – | –
3 | myc-tagged human PDGFRα (wild type) on Expi293F cells (from UniProt P16234-1) V242K | 0.94 | 0.9 | – | –
4 | myc-tagged human PDGFRα (wild type) on Expi293F cells (from UniProt P16234-1) V242T | 0.84 | 0.83 | – | –
5 | myc-tagged human PDGFRα (wild type) on Expi293F cells (from UniProt P16234-1) Y206S | 0.82 | 0.85 | – | –
6 | soluble PDGFRα-Fc (wild type, redesigned fusion to human IgG1 Fc) (from UniProt P16234-1) V242K | – | – | 1.1 | 1
7 | soluble PDGFRα-Fc (wild type, redesigned fusion to human IgG1 Fc) (from UniProt P16234-1) Y206S | – | – | 0.76 | 0.45
